Experimental data as given in patent US20190309059A1 (SHANGHAI PHARMAEXPLORER, published 2019).

How the values were obtained:
[1] = biological target: his-labeled human IL-13 (immunogen A) (human) (UniProt P35225); test: FACS blocking, biotin-IL-13 on IL-13Ra1/IL-4Ra HEK293 cells; antibody at 0.27 nM
[2] = biological target: his-labeled human IL-13 (immunogen A) (human) (UniProt P35225); test: FACS blocking, biotin-IL-13 on IL-13Ra2 HEK293 cells; antibody at 0.002 nM
[3] = biological target: cynomolgus IL-13 (purchased from sino biological) (cynomolgus) (UniProt Q0PW92); test: ELISA, cynomolgus IL-13; antibody at 0.021 nM
[4] = biological target: cynomolgus IL-13 (purchased from sino biological) (cynomolgus) (UniProt Q0PW92); test: ELISA, cynomolgus IL-13; antibody at 2.67 nM
[5] = biological target: cynomolgus IL-13 (purchased from sino biological) (cynomolgus) (UniProt Q0PW92); test: ELISA, cynomolgus IL-13; antibody at 0.004 nM
[6] = biological target: his-labeled human IL-13 (immunogen A) (human) (UniProt P35225); test: FACS blocking, biotin-IL-13 on IL-13Ra1/IL-4Ra HEK293 cells; antibody at 1.33 nM
[7] = biological target: his-labeled human IL-13 (immunogen A) (human) (UniProt P35225); test: FACS blocking, biotin-IL-13 on IL-13Ra1/IL-4Ra HEK293 cells; antibody at 0.05 nM
[8] = biological target: his-labeled human IL-13 (immunogen A) (human) (UniProt P35225); test: cell-based or functional assay
[9] = biological target: his-labeled human IL-13 (immunogen A) (human) (UniProt P35225); test: FACS blocking, biotin-IL-13 on IL-13Ra2 HEK293 cells; antibody at 166.67 nM
[10] = biological target: his-labeled human IL-13 (immunogen A) (human) (UniProt P35225); test: FACS blocking, biotin-IL-13 on IL-13Ra1/IL-4Ra HEK293 cells; antibody at 0.002 nM
[11] = biological target: his-labeled human IL-13 (immunogen A) (human) (UniProt P35225); test: FACS blocking, biotin-IL-13 on IL-13Ra2 HEK293 cells; antibody at 0.01 nM
[12] = biological target: his-labeled human IL-13 (immunogen A) (human) (UniProt P35225); test: FACS blocking, biotin-IL-13 on IL-13Ra2 HEK293 cells; antibody at 0.05 nM
[13] = biological target: his-labeled human IL-13 (immunogen A) (human) (UniProt P35225); test: FACS blocking, biotin-IL-13 on IL-13Ra1/IL-4Ra HEK293 cells; antibody at 6.67 nM
[14] = biological target: his-labeled human IL-13 (immunogen A) (human) (UniProt P35225); test: FACS blocking, biotin-IL-13 on IL-13Ra1/IL-4Ra HEK293 cells; antibody at 0.01 nM
[15] = biological target: his-labeled human IL-13 (immunogen A) (human) (UniProt P35225); test: SPR (Biacore), antibody captured by anti-human Fc, immunogen A as analyte
[16] = biological target: his-labeled human IL-13 (immunogen A) (human) (UniProt P35225); test: FACS blocking, biotin-IL-13 on IL-13Ra2 HEK293 cells; antibody at 0.27 nM
[17] = biological target: his-labeled human IL-13 (immunogen A) (human) (UniProt P35225); test: FACS blocking, biotin-IL-13 on IL-13Ra2 HEK293 cells; antibody at 6.67 nM
[18] = biological target: his-labeled human IL-13 (immunogen A) (human) (UniProt P35225); test: FACS blocking, biotin-IL-13 on IL-13Ra2 HEK293 cells; antibody at 33.33 nM
[19] = biological target: his-labeled human IL-13 (immunogen A) (human) (UniProt P35225); test: FACS blocking, biotin-IL-13 on IL-13Ra1/IL-4Ra HEK293 cells; antibody at 166.67 nM
[20] = biological target: cynomolgus IL-13 (purchased from sino biological) (cynomolgus) (UniProt Q0PW92); test: ELISA, cynomolgus IL-13; antibody at 66.7 nM
[21] = biological target: his-labeled human IL-13R130Q variant (human) (UniProt P35225); test: ELISA, IL-13R130Q variant; antibody at 13.33 nM
[22] = biological target: his-labeled human IL-13 (immunogen A) (human) (UniProt P35225); test: FACS blocking, biotin-IL-13 on IL-13Ra1/IL-4Ra HEK293 cells; antibody at 33.33 nM
[23] = biological target: his-labeled human IL-13 (immunogen A) (human) (UniProt P35225); test: FACS blocking, biotin-IL-13 on IL-13Ra2 HEK293 cells; antibody at 1.33 nM
[24] = biological target: cynomolgus IL-13 (purchased from sino biological) (cynomolgus) (UniProt Q0PW92); test: ELISA, cynomolgus IL-13; antibody at 0.53 nM
[25] = biological target: his-labeled human IL-13 (immunogen A) (human) (UniProt P35225); test: ELISA, biotin-immunogen A; antibody at 2.67 nM
[26] = biological target: his-labeled human IL-13 (immunogen A) (human) (UniProt P35225); test: ELISA: biotin-labeled immunogen A on streptavidin plate, antibody titrated, HRP secondary antibody, OD450

Sequence of cynomolgus IL-13 (purchased from sino biological) (cynomolgus) (Q0PW92 entry or part of it): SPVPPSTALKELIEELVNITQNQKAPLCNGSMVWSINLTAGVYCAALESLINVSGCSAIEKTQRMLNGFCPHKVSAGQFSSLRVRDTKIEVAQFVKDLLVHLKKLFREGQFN
Sequence of his-labeled human IL-13R130Q variant (human) (P35225 other isoform, or with tags, fused parts or gaps mutant): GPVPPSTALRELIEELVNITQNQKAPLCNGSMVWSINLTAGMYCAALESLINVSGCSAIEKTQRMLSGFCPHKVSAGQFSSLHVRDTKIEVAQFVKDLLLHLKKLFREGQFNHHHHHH

B1: c29D9H8 (mouse-human chimeric IL-13 antibody) (antibody, V domains shown)
VH: QVQLQQSGAELVRPGASVTLSCKASGYTFTDYEMHWVKQTPVHGLEWIGGIDPETGGTASNQKFKGKAILTADKSSSTAYMELRSLTSEDSAVYYCTSGDYFGGGPFAYWGQGTLVTVSA
VL: DIKMTQSPSSMYASLGERVTITCKASQDINSYLSWFQQKPGKSPKTLIYRANRLVDGVPSRFSGSGSGQDYSLTISSLDYEDMGIYYCLQYDEFPYTFGGGTKLEIK
For B1, the mean fluorescence intensity [1] was 72.6, the mean fluorescence intensity [2] was 101 and the OD450 nm [3] was 0.408. It also gave an OD450 nm [4] of 3.2, an OD450 nm [5] of 0.17 and a mean fluorescence intensity [6] of 45.7. It also gave a mean fluorescence intensity [7] of 90.3, a Periostin (pg/mL), MRCS cells + IL-13 5 ng/mL; antibody at 0.0002 nM [8] of 6190 pg/mL and a Periostin (pg/mL), MRCS cells + IL-13 5 ng/mL; antibody at 0.001 nM [8] of 4630 pg/mL. The Periostin (pg/mL), MRCS cells + IL-13 5 ng/mL; antibody at 0.004 nM [8] was 3480 pg/mL, the Periostin (pg/mL), MRCS cells + IL-13 5 ng/mL; antibody at 0.021 nM [8] was 3570 pg/mL and the Periostin (pg/mL), MRCS cells + IL-13 5 ng/mL; antibody at 0.11 nM [8] was 3220 pg/mL. The Periostin (pg/mL), MRCS cells + IL-13 5 ng/mL; antibody at 0.53 nM [8] was 1450 pg/mL, the Periostin (pg/mL), MRCS cells + IL-13 5 ng/mL; antibody at 2.67 nM [8] was 927 pg/mL and the Periostin (pg/mL), MRCS cells + IL-13 5 ng/mL; antibody at 13.3 nM [8] was 1150 pg/mL. For the same binder, the TARC (pg/mL), A549 cells + IL-13 + TNFα; antibody at 0.001 nM [8] was 3160 pg/mL, the TARC (pg/mL), A549 cells + IL-13 + TNFα; antibody at 0.004 nM [8] was 2950 pg/mL and the TARC (pg/mL), A549 cells + IL-13 + TNFα; antibody at 0.021 nM [8] was 2730 pg/mL. For the same binder, the TARC (pg/mL), A549 cells + IL-13 + TNFα; antibody at 0.11 nM [8] was 1850 pg/mL, the TARC (pg/mL), A549 cells + IL-13 + TNFα; antibody at 0.53 nM [8] was 655 pg/mL and the TARC (pg/mL), A549 cells + IL-13 + TNFα; antibody at 2.67 nM [8] was 159 pg/mL. It also gave a TARC (pg/mL), A549 cells + IL-13 + TNFα; antibody at 13.3 nM [8] of 50 pg/mL, a TARC (pg/mL), A549 cells + IL-13 + TNFα; antibody at 66.7 nM [8] of 36 pg/mL and a VCAM-1 fluorescence intensity, HUVEC + IL-13 0.5 ng/mL + TNFα; antibody at 0.0002 nM [8] of 364. It also gave a VCAM-1 fluorescence intensity, HUVEC + IL-13 0.5 ng/mL + TNFα; antibody at 0.001 nM [8] of 373, a VCAM-1 fluorescence intensity, HUVEC + IL-13 0.5 ng/mL + TNFα; antibody at 0.004 nM [8] of 393 and a VCAM-1 fluorescence intensity, HUVEC + IL-13 0.5 ng/mL + TNFα; antibody at 0.021 nM [8] of 409. For the same binder, the VCAM-1 fluorescence intensity, HUVEC + IL-13 0.5 ng/mL + TNFα; antibody at 0.11 nM [8] was 251, the VCAM-1 fluorescence intensity, HUVEC + IL-13 0.5 ng/mL + TNFα; antibody at 0.53 nM [8] was 265 and the VCAM-1 fluorescence intensity, HUVEC + IL-13 0.5 ng/mL + TNFα; antibody at 2.67 nM [8] was 246. It also gave a VCAM-1 fluorescence intensity, HUVEC + IL-13 0.5 ng/mL + TNFα; antibody at 13.3 nM [8] of 186, a mean fluorescence intensity [9] of 20.4 and a mean fluorescence intensity [10] of 105. For the same binder, the mean fluorescence intensity [11] was 95.9, the mean fluorescence intensity [12] was 81.6 and the mean fluorescence intensity [13] was 28.3. For the same binder, the mean fluorescence intensity [14] was 101, the Kd [15] was 0.0324 nM and the koff [15] was 0.000813 s⁻¹. For the same binder, the kon [15] was 2.51e+07 M⁻¹ s⁻¹, the mean fluorescence intensity [16] was 56.3 and the mean fluorescence intensity [17] was 25. It also gave a mean fluorescence intensity [18] of 22.8, a mean fluorescence intensity [19] of 20 and an OD450 nm [20] of 3.6. The OD450 nm [21] was 2.99, the mean fluorescence intensity [22] was 20.2 and the mean fluorescence intensity [23] was 34.6. For the same binder, the OD450 nm [24] was 2.68.

B2: c28A2E11 (mouse-human chimeric IL-13 antibody) (antibody, V domains shown)
VH: EVQLQQSGAELVKPGASVKLSCTASGFNIKDYYMHWVKQRTEQGLEWIGRIDPEDGETKYAPKFHDKATLTADTSSNTAYLQFSSLASEDTAVYYCTRYDYYGPFAYWGQGTLVTVSA
VL: QAVVTQESVLTTSPGETVTLTCRSSTGAVTTSNYANWVQEKPDHLFTGLIGGTNNRAPGVPARFSGSLIGDKAALTITGAQTEDEAIYFCALWYINHFIFGSGTKVTVL
Binder B2 has a mean fluorescence intensity [1] of 93, a mean fluorescence intensity [2] of 102 and an OD450 nm [3] of 0.085. For the same binder, the OD450 nm [4] was 1.34, the OD450 nm [5] was 0.073 and the mean fluorescence intensity [6] was 76.6. The mean fluorescence intensity [7] was 95.6, the Periostin (pg/mL), MRCS cells + IL-13 5 ng/mL; antibody at 0.0002 nM [8] was 7090 pg/mL and the Periostin (pg/mL), MRCS cells + IL-13 5 ng/mL; antibody at 0.001 nM [8] was 6350 pg/mL. For the same binder, the Periostin (pg/mL), MRCS cells + IL-13 5 ng/mL; antibody at 0.004 nM [8] was 5500 pg/mL, the Periostin (pg/mL), MRCS cells + IL-13 5 ng/mL; antibody at 0.021 nM [8] was 4920 pg/mL and the Periostin (pg/mL), MRCS cells + IL-13 5 ng/mL; antibody at 0.11 nM [8] was 4130 pg/mL. The Periostin (pg/mL), MRCS cells + IL-13 5 ng/mL; antibody at 0.53 nM [8] was 1650 pg/mL, the Periostin (pg/mL), MRCS cells + IL-13 5 ng/mL; antibody at 2.67 nM [8] was 1100 pg/mL and the Periostin (pg/mL), MRCS cells + IL-13 5 ng/mL; antibody at 13.3 nM [8] was 1160 pg/mL. The VCAM-1 fluorescence intensity, HUVEC + IL-13 0.5 ng/mL + TNFα; antibody at 0.0002 nM [8] was 379, the VCAM-1 fluorescence intensity, HUVEC + IL-13 0.5 ng/mL + TNFα; antibody at 0.001 nM [8] was 346 and the VCAM-1 fluorescence intensity, HUVEC + IL-13 0.5 ng/mL + TNFα; antibody at 0.004 nM [8] was 395. The VCAM-1 fluorescence intensity, HUVEC + IL-13 0.5 ng/mL + TNFα; antibody at 0.021 nM [8] was 404, the VCAM-1 fluorescence intensity, HUVEC + IL-13 0.5 ng/mL + TNFα; antibody at 0.11 nM [8] was 278 and the VCAM-1 fluorescence intensity, HUVEC + IL-13 0.5 ng/mL + TNFα; antibody at 0.53 nM [8] was 227. It also gave a VCAM-1 fluorescence intensity, HUVEC + IL-13 0.5 ng/mL + TNFα; antibody at 2.67 nM [8] of 224, a VCAM-1 fluorescence intensity, HUVEC + IL-13 0.5 ng/mL + TNFα; antibody at 13.3 nM [8] of 207 and a mean fluorescence intensity [9] of 58. For the same binder, the mean fluorescence intensity [10] was 102, the mean fluorescence intensity [11] was 99.1 and the mean fluorescence intensity [12] was 97.8. For the same binder, the mean fluorescence intensity [13] was 65.2, the mean fluorescence intensity [14] was 102 and the Kd [15] was 7.98 nM. It also gave a koff [15] of 0.00438 s⁻¹, a kon [15] of 549000 M⁻¹ s⁻¹ and an OD450 nm [25] of 2.6. For the same binder, the mean fluorescence intensity [16] was 92.9, the mean fluorescence intensity [17] was 65.7 and the mean fluorescence intensity [18] was 64.8. It also gave an EC50 (read off the curve) [26] of 0.2 nM, a mean fluorescence intensity [19] of 51.2 and an OD450 nm [20] of 3.4. For the same binder, the mean fluorescence intensity [22] was 61.9, the mean fluorescence intensity [23] was 77.7 and the OD450 nm [24] was 0.54.
